Measurements from patent US20240209109A1.

Columns and labels:
[1] = molecular target: human CD40 on cells (human) (UniProt P25942); assay: FACS on Jurkat cells overexpressing human CD40, PE anti-human IgG, MFI
[2] = molecular target: human CD40-His protein (human) (UniProt P25942); assay: ELISA on coated human CD40-His (1.0 ug/ml), anti-human IgG-HRP, OD450
[3] = molecular target: human CD40 on cells (human) (UniProt P25942); assay: FACS on Jurkat cells overexpressing human CD40, PE anti-human IgG, MFI; remark: listed apart in the source
[4] = molecular target: human CD40 on cells (human) (UniProt P25942); assay: FACS on human B cells (CD19+ gate), PE anti-human IgG Fc, MFI

Chain of human CD40 on cells (human) (P25942 21-277): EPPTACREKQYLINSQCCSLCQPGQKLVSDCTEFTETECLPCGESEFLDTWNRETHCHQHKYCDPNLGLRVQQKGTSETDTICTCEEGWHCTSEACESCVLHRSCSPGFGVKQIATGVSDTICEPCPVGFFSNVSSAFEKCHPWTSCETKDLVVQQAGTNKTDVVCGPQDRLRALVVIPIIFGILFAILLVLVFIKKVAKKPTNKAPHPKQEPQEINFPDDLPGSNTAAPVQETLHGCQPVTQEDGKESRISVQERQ
Chain of selicrelumab (antibody) (VH): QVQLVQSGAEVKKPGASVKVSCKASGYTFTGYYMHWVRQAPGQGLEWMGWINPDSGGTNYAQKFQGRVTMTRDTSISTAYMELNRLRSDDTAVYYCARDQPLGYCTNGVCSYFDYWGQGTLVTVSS
Chain of selicrelumab (antibody) (VL): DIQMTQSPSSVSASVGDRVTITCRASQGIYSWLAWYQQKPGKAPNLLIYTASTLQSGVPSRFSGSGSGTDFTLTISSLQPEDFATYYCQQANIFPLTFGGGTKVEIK
Chain of human CD40-His protein (human) (P25942 21-193 limits assumed): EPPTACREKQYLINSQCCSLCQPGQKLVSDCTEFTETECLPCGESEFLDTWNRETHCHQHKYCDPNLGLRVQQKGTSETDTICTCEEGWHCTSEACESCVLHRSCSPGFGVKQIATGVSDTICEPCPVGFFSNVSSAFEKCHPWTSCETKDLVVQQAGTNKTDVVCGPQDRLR

Substance: selicrelumab (antibody)
- EC50 (read off the curve) [1]: 0.9 nM
- EC50 (read off the curve) [2]: 0.7 nM
- EC50 (read off the curve) [3]: 1 nM
- EC50 (read off the curve) [4]: 1 nM
